Our source for the EC50 values is patent US20240218057A1 (ROCKEFELLER UNIVERSITY, published 2024).

Sequences and labels used below:
B1: C846 (antibody, V domains shown)
VH: QVQLVESGGGVFQPGRSLRLSCAASGFNFRTYAMHWVRQAPGKGLEWVAVILDDGSGKFYADSVKGRFTVSRDNSKHTLYLQMTSLSAEDTAIYFCARDQGTATTYFDHWGQGTLVTVSS
VL: DIQMTQSPSSLSASVGDRVTITCRASQSIRTFLSWYQQKAGKAPKLLIYTASSLQNGVPSRFSGSGSGTDFTLTISSLQPEDFATYYCQQSYETPPWTFGQGTKVEIK
notes: IgG; V domains only
B2: C848 (antibody, V domains shown)
VH: QVQLQESGPGLVKPSQTLSLTCTVSGGSISSGDYYWSWIRQPPGKGLEWIGYIYYTGITYYRPSLKSRVTISVDTSKNQFSLKLSSVTAADTAVFYCARVVRLWPRYFDSWGQGTLVTVSS
VL: QSALTQPPSASGSPGQSVTISCTGTSSDVGTYDYVSWYQQHPGKAPKVIIYEVTKRPSGVPDRFSGSKSGNTASLTVSGLQAEDEAHYYCSTYAGSDNLEFGGGTKLTVL
notes: IgG; V domains only
B3: C842 (antibody, V domains shown)
VH: QVQLVESGGGVVQPGRSLRLSCAASGFTFSTYAIHWVRQAPGKGLEWVAAISYDGSNKYYSDSVKGRLFISRDNSNNTVYLQMNNLRAEDTAIYYCARDGTIVTLVRGVMGPPFDYWGQGTLVTVSS
VL: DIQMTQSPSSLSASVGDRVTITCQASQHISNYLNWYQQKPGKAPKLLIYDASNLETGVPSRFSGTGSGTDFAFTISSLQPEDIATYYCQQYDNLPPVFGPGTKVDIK
notes: IgG; V domains only
B4: C839 (antibody, V domains shown)
VH: QVQLQESGPGLVKPLDTLSLTCTVSGASISSYYWSWIRQPAGKGLEWIGLIYSSGSTTYNPSLKSRVTMSVDTSKKQFSLNLSSMTAADTAVYYCARGSALNWKSIGYFDSWGQGTLVTV
VL: DIQMTQSPSSLSASIRDRVTITCQASQDISNYLNWYQQKAGEAPKLLIYDASSLETGVPSRFSGSGSGTEFTLTISSLQPEDIATYYCQQYDHVPLTFGGGTKVEIK
notes: IgG; V domains only
B5: C840 (antibody, V domains shown)
VH: QVQLVESGGGVVQPGRSLRLSCEASGFTFTAYAMHWLRQAPGKGLEWVAVILNDGSNKLYADSVKGRFTVSRDNSKNMLYLQVNSLRVDDTAVYYCARDGSVDTLMVTWFDYWGQGTLVTVSS
VL: DIQMTQSPSSLSASVGDRVTITCRASQSVNNYLNWYQQKPGQAPKLLIYAASSLQSGVPLRFSGSGSGTDFALTITSLHTEDFATYYCQQSYNTPPWTFGPGTKVEIK
notes: IgG; V domains only
B6: C844 (antibody, V domains shown)
VH: EVQLVESGGGLVKPGGSLRLSCVATGFSFSDAWMNWVRQAPGKGLEWVGRIRSEIADGTTDYAAPVKGRFTISRDDARNTLYLQMNSLEIEDTAVYYCTTGVVVVVSSSPDDAFDVWGQGTMVTVSS
VL: DIQMTQSPSSLSASVGDRVTITCRASQSIGHYLNWYQQKPGKAPKLLIYAASSLQSGVPSRFSGSGSGAGFTLTVNGLQPEDLATYYCQQYYTTPPTFGQGTKVEIK
notes: IgG; V domains only
B7: C853 (antibody, V domains shown)
VH: QVQLQESGPGLVKASQTLSLTCTVSGGSFRSGGYYYNWIRQHPGKGLEWIGYIFYTGVTYYNPSLKSRVSISVDTSKNQLSLNLTSVTAADTAVYYCARGSYSDYNGGWDYWGRGTLVTVS
VL: QSALTQPPSASGSPGQSVTISCIGTSSDVGGYNYVSWYQHHPGKAPKLIIYEVSKRPSGVPDRFSGSKSGNTASLTVSGLQADDEADYYCSSYAGSNNWVFGGGTKLTV
notes: IgG; V domains only
B8: C855 (antibody, V domains shown)
VH: QVQLVESGGGVVQPGRSLRLSCAASGFAFSTYGMHWVRQTPGKGLAWVAAISYDGRNTYYGDSVKGRFTITRDNSKNTLYLQLNSLRDEDTALYYCARDATMITLVRGIMGPPFDHWGQGSLVTVSS
VL: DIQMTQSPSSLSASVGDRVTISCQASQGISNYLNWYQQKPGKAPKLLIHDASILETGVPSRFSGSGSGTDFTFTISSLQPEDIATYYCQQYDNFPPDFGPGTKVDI
notes: IgG; V domains only
B9: C860 (antibody, V domains shown)
VH: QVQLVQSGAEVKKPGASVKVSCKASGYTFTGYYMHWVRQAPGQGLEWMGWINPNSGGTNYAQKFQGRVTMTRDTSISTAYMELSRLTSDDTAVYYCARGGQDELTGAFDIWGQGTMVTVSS
VL: SYELTQPPSVSVAPGKTARITCGGNSIGSKSVHWYQQKPGQAPVLVIYYDSDRPSGIPERFSGSNSGNTATLTISRVEAGDEADFHCQVWDSGWVFGGGTKLTVL
notes: IgG; V domains only
B10: C852 (antibody, V domains shown)
VH: QVQLVQSGAEVKKPGASVKVSCKASGYIFTGFYMHWVRQAPGQGPEWMGWINPNSGGTNYAQKFQGRVTMTRDTSISTAYMELSRLRSDDTALYYCARGGQDELTGTFDVWGQGTMVTVSS
VL: SYELTQPPSVSLAPGKTASITCGGDSIGSKSVHWYQQRPGQAPILVIYYDGDRPSGIPERFSGSNSGNTATLTISRVEAGDEADYYCQVWDGGWVFGGGTKLTVL
notes: IgG; V domains only
B11: C859 (antibody, V domains shown)
VH: QVQLVQSGAELKKPGASVRVSCKASGYTFTDYYIHWVRQAPGQGFEWMGWINPDSGGTNYPQNFQGRVTMTRGTSISTAYVELTRLRFDDTAVYYCARTSSPHSSSTGDLDYWGQGTLVTVS
VL: SYELTQSPSVSVAPGKTARITCGGRDIGSKSVHWYQQRPGQAPVLVISYDNDRPSGIPERFSGSNSGNTATLTISRVEAGDEADYYCQVWDGTGDHPGWVFGGGTRLTVL
notes: IgG; V domains only
B12: C849 (antibody, V domains shown)
VH: QVQLVQSGAEVKKPGASVKVSCRASGYTFTDHYIHWVRQAPGQGLEWMGWINPNSGDTNYPQKFQGRVTMARDTSISTAHMELRRLKSDDTAVYYCARTSSPHSSSTGDFDSWGQGTLVTVSS
VL: SYELTQPPSVSVAPGKTARITCGGDDIGSKSVHWYQQKSGQAPVLVIHDDSDRPSGIPERFSGSNSGNTATLTISRVEAGDEADYYCQVWDFTGDHPGWVFGGGTKLTVL
notes: IgG; V domains only
B13: C841 (antibody, V domains shown)
VH: EVQLVESGGGLVQPGGSLRLSCAASGFTFSIFSMNWVRQAPGKGLEWISYISSSSGSRHYADSVKGRFTISRDNAKNSLYLQMNNLRDEDTAMYYCAREAHDGALTGYGDYLNWFDPWGQGVLVTVSS
VL: SYELTQPPSVSVAPGKTARIPCGGDSVGSKSVHWYQQKSGQAPVLVIHSDSDRPSGIPERFSGSNSGNTATLTITGVAAGDEADYYCHVWDTIGDRFYWVFGGGTKLTVL
notes: IgG; V domains only
B14: C857 (antibody, V domains shown)
VH: QVQLQESGPGLVKPSQTLSLTCTVSGGSISSGGYYWSWIRQHPGKGLEWIGYIYYSGSTYYNPSLESRVTISVDTSKNQFSLKLSSVTAADTAVYYCASGELSAFGELFPHDYWGQGTLVTVSS
VL: EIVLTQSPATLSLSPGERATLSCRASQSVSTYLAWYQQKPGQAPRLLIYDASNRATGIPARFSGSGSGTDFTLTISSLEPEDFAVYYCQQRSNWLFTFGPGTKVDIK
notes: IgG; V domains only
B15: C845 (antibody, V domains shown)
VH: QVQLQESGPGLVKPSQTLSLTCTVSGASISSGEYYWSWVRQPPGKGLEWVGYIYYSGSTYYNPSLKSRVTISVDTSKNHFSLKLKSLTAADTAVYFCATGGLSAFGELFPHDKWGQGTLVTVSS
VL: EIVLTQSPATLSLSPGERATLSCRASQSVGSDLAWYQQKPGQAPRLLIYDTSNRATGIPARFSGSGSGTDFTLTISSLDPADFAVYYCQQRTNWLFSFGPGTKVDIK
notes: IgG; V domains only
B16: C856 (antibody, V domains shown)
VH: QVQLVESGGGVVQPGRSLRLSCAASGFTFSSYGMHWVRQAPGKGLEWVAVISYDGSNKYYADSVKGRFTISRDNSKNTLYLQMSSLRAEDTAVYYCAKQIGEYCSGGSCYQGSLDYWGQGTLVTVSS
VL: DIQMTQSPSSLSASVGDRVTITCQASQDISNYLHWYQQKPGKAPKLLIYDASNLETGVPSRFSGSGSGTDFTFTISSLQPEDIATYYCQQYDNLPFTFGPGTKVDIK
notes: IgG; V domains only
B17: C843 (antibody, V domains shown)
VH: QVQLVESGGGVVQPGRSLRLSCAASGFTFSRYAMHWVRQAPGKGLEWVAVISYDGSNKYYATSLKGRCTISRDNSKNTLYLQMNSLRAEDTAVYFCAKQIGEYCSGGNCYQGSLDYWGQGTLVTVSS
VL: DIQMTQSPSSLSASVGDRVTITCQASQDISNYLNWYQQKPGKAPKLLIYDASDLETGVPSTFSGSGSGTDFTLTISSLQPEDFATYYCQQYDIVPFTFGPGTKVDIK
notes: IgG; V domains only

This assay deals with T1, SARS-COV-2 RBD (SARS-COV-2, UniProt P0DTC2 319-539).
T1 construct: also called WT RBD
In words: ELISA, RBD coated.
As usually defined, the EC50 is the concentration at which the effect is half-maximal. A high value points to a less potent agent. In turn, B1 gave an EC50 of 3.48 ng/mL.
The same measure for B2: 2.23 ng/mL; for B3: 3.01 ng/mL.
The same measure for B4: 4.38 ng/mL; for B5: 1.36 ng/mL; for B6: 1.53 ng/mL.
The same measure for B7: 2.3 ng/mL; for B8: 2.73 ng/mL.
Molecule B9 had an EC50 of 2.61 ng/mL.
With B10 the figure was 4.59 ng/mL; with B11, 2.75 ng/mL.
B12 had an EC50 of 3.64 ng/mL. The EC50 values of the last two molecules are within 1.5-fold of each other.
B13 registered an EC50 of 3.15 ng/mL.
With B14 the figure was 2.01 ng/mL.
With B15 the figure was 1.5 ng/mL; with B16, 2.65 ng/mL.
The same measure for B17: 2.4 ng/mL.
